In the supplement of paper PMC10724198:
± gives the standard deviation of the averaged measurements.

Columns and labels:
Saccharomyces cerevisiae [1] = experiment: protein stability index of tFT-peptide fusion (C-terminal peptide) (PSI (0-1 scale)); higher = more stable (slower turnover); conditions: genetic background: wild type; temperature: 30 C
Saccharomyces cerevisiae [2] = experiment: as above
Procedure: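 MPS profiling in S. cerevisiae of the tFT-X12 degron library: putative degron peptides plus stable controls, 12 aa, fused to the C-terminus of a sfGFP-mCherry timer. Cells are FACS-sorted into 8 mCherry/sfGFP bins and deep-sequenced. PSI runs from 0 (unstable) to 1 (stable). Backgrounds are wild type, das1Δ and doa10Δ at 30 °C, and wild type, das1Δ, cdc34-1 and cdc53-1 at 37 °C; 2-3 technical replicates each.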

[3] = genetic background: cdc34-1, temperature: 37 C
[4] = genetic background: cdc53-1, temperature: 37 C
[5] = genetic background: das1 deletion, temperature: 30 C
[6] = genetic background: das1 deletion, temperature: 37 C
[7] = genetic background: doa10 deletion, temperature: 30 C
[8] = genetic background: wild type, temperature: 30 C
[9] = genetic background: wild type, temperature: 37 C
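Also: PSI is a weighted mean of sequencing reads over stability bins, variants kept only with over 10 reads, mCherry proximal and sfGFP distal, peptide attached via GGGS linker.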

Row | Sequence | protein stability index (Saccharomyces cerevisiae [1]) | protein stability index (Saccharomyces cerevisiae [2]; [3]) | protein stability index (Saccharomyces cerevisiae [2]; [4]) | protein stability index (Saccharomyces cerevisiae [2]; [5]) | protein stability index (Saccharomyces cerevisiae [2]; [6]) | protein stability index (Saccharomyces cerevisiae [2]; [7]) | protein stability index (Saccharomyces cerevisiae [2]; [8]) | protein stability index (Saccharomyces cerevisiae [2]; [9])
1 | FSGFPLTLSPPL | 0.7224 ± 0.0042 | 0.717 ± 0.029 | 0.7715 ± 0.0044 | 0.67 ± 0.024 | 0.753 ± 0.013 | 0.685 ± 0.0098 | 0.679 ± 0.019 | 0.73 ± 0.018
2 | FSVLLLANFCFF | 0.482 ± 0.0056 | 0.498 ± 0.031 | 0.516 ± 0.0072 | 0.409 ± 0.037 | 0.554 ± 0.015 | 0.363 ± 0.016 | 0.407 ± 0.043 | 0.528 ± 0.015
3 | FSVLRLVIVSLL | 0.0995 ± 0.012 | 0.227 ± 0.012 | 0.503 ± 0.067 | 0.35 ± 0.037 | 0.537 ± 0.019 | 0.0564 ± 0.004 | 0.0846 ± 0.04 | 0.0783 ± 0.029
4 | FSVSYFRLVRLC | 0.0191 ± 0.027 | 0.39 ± 0.017 | 0.572 ± 0.0077 | 0.458 ± 0.032 | 0.602 ± 0.0083 | 0.0722 ± 0.003 | 0.0819 ± 0.038 | 0.08731 ± 0.00027
5 | FTNLDYTKEKNN | 0.29 ± 0.017 | 0.423 ± 0.15 | 0.6798 ± 0.0014 | 0.623 ± 0.052 | 0.708 ± 0.042 | 0.134 ± 0.012 | 0.146 ± 0.025 | 0.178 ± 0.0045
6 | FVIVSSCIGYAL | 0.499 ± 0.015 | 0.603 ± 0.039 | 0.641 ± 0.036 | 0.451 ± 0.028 | 0.584 ± 0.0076 | 0.4365 ± 0.0039 | 0.46 ± 0.025 | 0.561 ± 0.032
7 | FVLLSVCFFGCL | 0.442 ± 0.024 | 0.306 ± 0.011 | 0.4219 ± 0.0028 | 0.336 ± 0.024 | 0.495 ± 0.017 | 0.301 ± 0.0069 | 0.327 ± 0.004 | 0.438 ± 0.044
8 | FVMLSFLVSSLP | 0.4255 ± 0.0037 | 0.404 ± 0.006 | 0.489 ± 0.039 | 0.346 ± 0.028 | 0.513 ± 0.006 | 0.3038 ± 0.0018 | 0.34 ± 0.017 | 0.495 ± 0.0055
9 | FVMTYCLMSVSK | 0.0465 ± 0.035 | 0.0323 ± 0.018 | 0.0364 ± 0.002 | 0.0746 ± 0.02 | 0.0531 ± 0.038 | 0.063 ± 0.0057 | 0.07 ± 0.016 | 0.0478 ± 0.025
10 | FVRSVFFCVSVG | 0.469 ± 0.057 | 0.498 ± 0.037 | 0.531 ± 0.017 | 0.396 ± 0.029 | 0.548 ± 0.019 | 0.34 ± 0.012 | 0.373 ± 0.027 | 0.5 ± 0.018
11 | FVWAVGLVSASV | 0.503 ± 0.01 | 0.507 ± 0.0064 | 0.527 ± 0.0082 | 0.402 ± 0.022 | 0.561 ± 0.0067 | 0.379 ± 0.013 | 0.414 ± 0.03 | 0.52 ± 0.0091
12 | FWLFAFVIRKHI | 0.2057 ± 0.00034 | 0.286 ± 0.019 | 0.404 ± 0.013 | 0.324 ± 0.033 | 0.511 ± 0.007 | 0.10098 ± 0.0001 | 0.089 ± 0.0045 | 0.0641 ± 0.012
13 | FYSLYLSLVCFN | 0.224 ± 0.0011 | 0.345 ± 0.015 | 0.389 ± 0.0083 | 0.301 ± 0.034 | 0.454 ± 0.0076 | 0.161 ± 0.01 | 0.127 ± 0.016 | 0.256 ± 0.014
14 | GAVKCLVCLAVW | 0.404 ± 0.022 | 0.282 ± 0.0035 | 0.365 ± 0.054 | 0.309 ± 0.032 | 0.4138 ± 0.0017 | 0.26 ± 0.011 | 0.3 ± 0.026 | 0.3844 ± 0.00071
15 | GCGFSFFHIVVL | 0.121 ± 0.0051 | 0.111 ± 0.0053 | 0.113 ± 0.0037 | 0.147 ± 0.04 | 0.256 ± 0.024 | 0.416 ± 0.0071 | 0.152 ± 0.022 | 0.225 ± 0.0047
16 | GCLFMQVSLFWR | 0.286 ± 0.028 | 0.0959 ± 0.027 | 0.164 ± 0.018 | 0.147 ± 0.038 | 0.295 ± 0.023 | 0.177 ± 0.0049 | 0.138 ± 0.044 | 0.26 ± 0.017
17 | GDINRNTRYLEK | 0.556 ± 0.18 | 0.6705 ± 0.0048 | 0.7508 ± 0.0049 | 0.648 ± 0.029 | 0.698 ± 0.0092 | 0.649 ± 0.0063 | 0.6339 ± 0.0032 | 0.702 ± 0.024
18 | GFGRRGQFGGTG | 0.574 ± 0.14 | 0.86 ± 0.079 | 0.863 ± 0.016 | 0.607 ± 0.019 | 0.801 ± 0.048 | 0.542 ± 0.039 | 0.567 ± 0.04 | 0.835 ± 0.059
19 | GFRVTTCASWIC | 0.177 ± 0.02 | 0.557 ± 0.016 | 0.734 ± 0.011 | 0.612 ± 0.015 | 0.729 ± 0.015 | 0.143 ± 0.012 | 0.15 ± 0.027 | 0.191 ± 0.012
20 | GFSEGRLTIPVY | 0.455 ± 0.047 | 0.453 ± 0.025 | 0.4949 ± 0.0041 | 0.343 ± 0.04 | 0.5097 ± 0.0018 | 0.2949 ± 0.0027 | 0.345 ± 0.06 | 0.476 ± 0.01

Row | Sequence | protein stability index (Saccharomyces cerevisiae [1]) | protein stability index (Saccharomyces cerevisiae [2]; [3]) | protein stability index (Saccharomyces cerevisiae [2]; [4]) | protein stability index (Saccharomyces cerevisiae [2]; [5]) | protein stability index (Saccharomyces cerevisiae [2]; [6]) | protein stability index (Saccharomyces cerevisiae [2]; [7]) | protein stability index (Saccharomyces cerevisiae [2]; [8]) | protein stability index (Saccharomyces cerevisiae [2]; [9])
21 | GFVISSCRLFIL | 0.337 ± 0.044 | 0.581 ± 0.052 | 0.632 ± 0.0072 | 0.59 ± 0.022 | 0.669 ± 0.011 | 0.272 ± 0.021 | 0.264 ± 0.024 | 0.3989 ± 0.0031
22 | GFVLLCFCCRTW | 0.393 ± 0.004 | 0.28 ± 0.01 | 0.421 ± 0.052 | 0.287 ± 0.032 | 0.4828 ± 0.0044 | 0.2477 ± 0.00056 | 0.277 ± 0.035 | 0.426 ± 0.03
23 | GGCYAGVAMRLI | 0.76 ± 0.015 | 0.653 ± 0.02 | 0.729 ± 0.026 | 0.644 ± 0.021 | 0.714 ± 0.042 | 0.632 ± 0.014 | 0.62 ± 0.027 | 0.681 ± 0.025
24 | GGGVGVVWVRLG | 0.256 ± 0.028 | 0.429 ± 0.03 | 0.678 ± 0.035 | 0.618 ± 0.013 | 0.72 ± 0.024 | 0.0905 ± 0.017 | 0.114 ± 0.014 | 0.137 ± 0.017
25 | GGLFRWCVWRIV | 0.145 ± 0.0086 | 0.413 ± 0.02 | 0.5292 ± 0.0032 | 0.545 ± 0.025 | 0.6377 ± 0.0015 | 0.102 ± 0.016 | 0.102 ± 0.0098 | 0.172 ± 0.025
26 | GGSWVRCLRTMG | 0.312 ± 0.029 | 0.628 ± 0.019 | 0.71 ± 0.024 | 0.614 ± 0.016 | 0.7097 ± 0.0014 | 0.17 ± 0.0073 | 0.158 ± 0.028 | 0.399 ± 0.032
27 | GGVWLSVVSWVG | 0.167 ± 0.021 | 0.156 ± 0.0086 | 0.238 ± 0.03 | 0.0995 ± 0.024 | 0.256 ± 0.012 | 0.0676 ± 0.00079 | 0.0976 ± 0.011 | 0.244 ± 0.0053
28 | GGWSLFCIVVVV | 0.268 ± 0.074 | 0.111 ± 0.039 | 0.171 ± 0.0092 | 0.179 ± 0.029 | 0.306 ± 0.0031 | 0.167 ± 0.013 | 0.173 ± 0.035 | 0.253 ± 0.0092
29 | GIFVWWFWGCCG | 0.399 ± 0.01 | 0.503 ± 0.016 | 0.585 ± 0.051 | 0.38 ± 0.023 | 0.567 ± 0.03 | 0.293 ± 0.02 | 0.321 ± 0.017 | 0.5283 ± 0.0019
30 | GILILRLILCLF | 0.227 ± 0.0044 | 0.251 ± 0.027 | 0.302 ± 0.047 | 0.248 ± 0.033 | 0.385 ± 0.023 | 0.171 ± 0.0058 | 0.189 ± 0.018 | 0.24 ± 0.012
31 | GILLLLISRVVF | 0.371 ± 0.011 | 0.278 ± 0.032 | 0.373 ± 0.025 | 0.229 ± 0.047 | 0.469 ± 0.0056 | 0.197 ± 0.039 | 0.227 ± 0.021 | 0.413 ± 0.0093
32 | GILVVAASICYV | 0.447 ± 0.018 | 0.451 ± 0.021 | 0.48 ± 0.02 | 0.355 ± 0.031 | 0.52243 ± 0.00038 | 0.342 ± 0.0088 | 0.359 ± 0.017 | 0.488 ± 0.015
33 | GKKKREWKKNRI | 0.382 ± 0.021 | 0.6893 ± 0.00074 | 0.733 ± 0.0097 | 0.645 ± 0.022 | 0.711 ± 0.013 | 0.217 ± 0.026 | 0.257 ± 0.041 | 0.552 ± 0.0071
34 | GLCLFLIGVFSV | 0.4425 ± 0.0022 | 0.224 ± 0.0031 | 0.313 ± 0.06 | 0.246 ± 0.039 | 0.439 ± 0.022 | 0.2104 ± 0.0019 | 0.237 ± 0.023 | 0.381 ± 0.026
35 | GLFAVWVVGVWC | 0.212 ± 0.052 | 0.0437 ± 0.0013 | 0.137 ± 0.052 | 0.139 ± 0.031 | 0.219 ± 0.0058 | 0.0955 ± 0.013 | 0.111 ± 0.045 | 0.202 ± 0.011
36 | GLFLLWWLGWLV | 0.422 ± 0.036 | 0.63 ± 0.011 | 0.645 ± 0.043 | 0.468 ± 0.022 | 0.651 ± 0.023 | 0.333 ± 0.02 | 0.376 ± 0.02 | 0.5187 ± 0.0047
37 | GLFLYCCLVSLL | 0.283 ± 0.011 | 0.192 ± 0.031 | 0.321 ± 0.0044 | 0.25 ± 0.025 | 0.413 ± 0.018 | 0.191 ± 0.00083 | 0.193 ± 0.019 | 0.33 ± 0.0091
38 | GLLLVWAALGFV | 0.3431 ± 0.00066 | 0.343 ± 0.033 | 0.4444 ± 0.0018 | 0.28 ± 0.019 | 0.458 ± 0.006 | 0.221 ± 0.007 | 0.251 ± 0.043 | 0.439 ± 0.0095
39 | GLVVWWLSGWLW | 0.373 ± 0.0071 | 0.249 ± 0.034 | 0.435 ± 0.05 | 0.269 ± 0.023 | 0.428 ± 0.0078 | 0.221 ± 0.026 | 0.276 ± 0.025 | 0.425 ± 0.048
